Assay results as given in article PMC9734137 (2022).
Where two headings read alike, the source gives them in different places.

B1: aSA3 (VHH)
VHH: QVQLVESGGGLVQPGGSLRLSCAASGFTSDHYALAWFRQAPGKEREGVSCIDSDGNPFYADSVKGRFTGSRDNAKNTVYLQMNSLKLEDTAVYYCAAGLWYGRSLNSFDYDYWGQGTQVTVSS
B2: aSA3-Fc (Fc fusion)
chain: B1 VHH

Columns and labels:
WT SARS2 RBD [1] = molecular target: T1, WT SARS2 RBD (SARS-CoV-2, UniProt P0DTC2 321-591); experiment: SPR
SARS1 RBD [2] = molecular target: SARS1 RBD (SARS-CoV-1); experiment: SPR
WT SARS2 RBD [3] = molecular target: T1, WT SARS2 RBD; experiment: SPR; remark: listed apart in the source
SARS1 RBD [4] = molecular target: SARS1 RBD (SARS-CoV-1); experiment: SPR; remark: listed apart in the source
WT SARS2 RBD [5] = molecular target: T1, WT SARS2 RBD; experiment: ELISA

Binder | koff (WT SARS2 RBD [1]) [s⁻¹] | koff (SARS1 RBD [2]) [s⁻¹] | koff (WT SARS2 RBD [3]) [s⁻¹] | koff (SARS1 RBD [4]) [s⁻¹] | EC50 (WT SARS2 RBD [5]) [nM]
B1 | 9.77e-05 | 0.000364 |  |  | 
B2 |  |  | 1.44e-05 | 8.26e-05 | 0.74
